{
  "source": "the supplement of paper PMC6755084",
  "data": [
    {"tested_on": "F1*sub RNA substrate (template-directed ligation)", "assay": "fraction ligated after 30 min (ligated reads / total reads); higher = more ligase activity; sequences stand for … in GAGACCGCAACTGAAAAGTTGT…AGTTCTGCACGTAGAAGCAAAAGGC", "conditions": "42 °C", "how_it_was_run": "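Oligo-pool templates of ligase ribozyme variants were PCR-amplified, T7-transcribed and gel-purified. Ligated and unligated bands were gel-separated, reverse transcribed with barcoded primers, and MiSeq-sequenced; core bases were filtered at quality ≥20. Fraction ligated per variant was ligated reads over total reads.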", "values": [
      {"sequence": "TATATTGTCGTAAGACACTTTGGTGGGTTGA [3d772]", "fraction ligated": 0.0169},
      {"sequence": "TATCACTTGCGTAAGACACTTTGTGGGTTGA [3d1689]", "fraction ligated": 0.05},
      {"sequence": "TTCACTTGTCGTAAGACACTTTGGATGGTTA [3d504]", "fraction ligated": 0.636},
      {"sequence": "TATCCTTGTCGTAAGACACTTTGGATGGTTA [3d1117]", "fraction ligated": 0.0143},
      {"sequence": "TATCACTTGTCGTAACACTTGGATGGGTTGA [3d1996]", "fraction ligated": 0.773},
      {"sequence": "TATCACTTGTAAGACACTTTGGATGGGTTGA [3d1311]", "fraction ligated": 0.837},
      {"sequence": "TATCCTTGTGTAAGACACTTTGGATGGTTGA [3d1012]", "fraction ligated": 0.0285},
      {"sequence": "TATCCTTTCGTAAGACCTTTGGATGGGTTGA [3d975]", "fraction ligated": 0.771},
      {"sequence": "TATCACTTGTCTAAGCACTTTGGATGGTTGA [3d1853]", "fraction ligated": 0.165},
      {"sequence": "TATCACTTTCTAAGACCTTTGGATGGGTTGA [3d1484]", "fraction ligated": 0.783},
      {"sequence": "TATCACTTGTCGTAAGCCTTTGGATGGGTTGA [2d245]", "fraction ligated": 0.781},
      {"sequence": "TACACTTGTCTAAGACACTTTGGATGGGTTGA [2d54]", "fraction ligated": 0.609},
      {"sequence": "TATATTGTCGTAAGACACTTTGGATGGGTTG [3d776]", "fraction ligated": 0.214},
      {"sequence": "TACACTTGCGTAAGACACTTTGGATGGGTTG [3d616]", "fraction ligated": 0.118},
      {"sequence": "TATACTTGCGTAGACACTTTGGATGGGTTGA [3d815]", "fraction ligated": 0.435},
      {"sequence": "TATCCTGTCGTAAGACACTTTGATGGGTTGA [3d962]", "fraction ligated": 0.754},
      {"sequence": "ATCACTTGTCGTAAGACACTTTGAGGGTTGA [3d262]", "fraction ligated": 0.0273},
      {"sequence": "ATCACTTGTCGTAAGACATTTGGATGGGTTA [3d251]", "fraction ligated": 0.66},
      {"sequence": "TATCACTTGCGTAAGACACTTGGAGGGTTGA [3d1684]", "fraction ligated": 0.0856},
      {"sequence": "TATCCTGTCGTAAGCACTTTGGATGGGTTGA [3d957]", "fraction ligated": 0.783},
      {"sequence": "ATCCTTGTGTAAGACACTTTGGATGGGTTGA [3d70]", "fraction ligated": 0.734},
      {"sequence": "TACACTTGTCGTAAGACACTTTGTGGGTTGA [3d722]", "fraction ligated": 0.115},
      {"sequence": "TATCACTTGTCGTAAGACATTTGGATGGGTT [3d2229]", "fraction ligated": 0.73},
      {"sequence": "TTCACTTGTCGTAAGAACTTGGATGGGTTGA [3d463]", "fraction ligated": 0.226},
      {"sequence": "TACACTTGTCGTAGCACTTTGGATGGGTTGA [3d661]", "fraction ligated": 0.0075},
      {"sequence": "TATCACTTGTCGTAAACACTTTGGAGGGTTA [3d2099]", "fraction ligated": 0.101},
      {"sequence": "TTACTTGTCGTAAACACTTTGGATGGGTTGA [3d286]", "fraction ligated": 0.00498},
      {"sequence": "TATCACTTTCGAAGACACTTTGGATGGTTGA [3d1503]", "fraction ligated": 0.0707},
      {"sequence": "TATCACTTGCGAAGACACTTTGGTGGGTTGA [3d1621]", "fraction ligated": 0.0968},
      {"sequence": "TTACTTGTCGTAAGACACTTTGGATGGGTTGA [2d25]", "fraction ligated": 0.419},
      {"sequence": "TATCACTTGTGTAAGACCTTTGGATGGTTGA [3d1776]", "fraction ligated": 0.204},
      {"sequence": "TATCACTTGTCGTAAGCACTTTGGATGGGTT [3d2150]", "fraction ligated": 0.534},
      {"sequence": "ATCACTTGTCTAAGACACTTTGGAGGGTTGA [3d181]", "fraction ligated": 0.155},
      {"sequence": "TATCATTGCGTAAGACACTTTGGATGGGTTA [3d1170]", "fraction ligated": 0.447},
      {"sequence": "TTCACTTGTCGTAAGACACTTTGATGGGTTA [3d495]", "fraction ligated": 0.0395},
      {"sequence": "TATACTTGCTAAGACACTTTGGATGGGTTGA [3d813]", "fraction ligated": 0.669},
      {"sequence": "TATACTTGTCGTAAGACACTTTGGAGGGTTA [3d943]", "fraction ligated": 0.00392},
      {"sequence": "TTCACTTGTGTAAGACACTTTGGAGGGTTGA [3d398]", "fraction ligated": 0.105},
      {"sequence": "TATCACTTGTCTAGACACTTTGGAGGGTTGA [3d1832]", "fraction ligated": 0.218},
      {"sequence": "TATCCTTTCGTAAGAACTTTGGATGGGTTGA [3d974]", "fraction ligated": 0.797},
      {"sequence": "TTCACTTGTCGAAGACACTTTGGATGGGTTA [3d427]", "fraction ligated": 0.28},
      {"sequence": "TATCATGTCGAAGACACTTTGGATGGGTTGA [3d1126]", "fraction ligated": 0.792},
      {"sequence": "TATCACTTGTCGTAGACACTTTATGGGTTGA [3d2042]", "fraction ligated": 0.128},
      {"sequence": "ATCACTTGTCGAAGACACTTTGATGGGTTGA [3d192]", "fraction ligated": 0.655},
      {"sequence": "TATCATTGTCGTAAGCACTTTGGATGGGTTG [3d1246]", "fraction ligated": 0.767},
      {"sequence": "TATCACTGTCGTAAGACACTGGATGGGTTGA [3d1440]", "fraction ligated": 0.824},
      {"sequence": "ATCACTTGTCGTAAGACACTTTGATGGTTGA [3d263]", "fraction ligated": 0.0782},
      {"sequence": "TATATTGTCGTAAACACTTTGGATGGGTTGA [3d765]", "fraction ligated": 0.367},
      {"sequence": "TACACTTTCGTAAGACACTTTGGATGGGTTG [3d600]", "fraction ligated": 0.0259},
      {"sequence": "TACACTTGTCGTAAGAACTTTGGATGGGTTA [3d698]", "fraction ligated": 0.00405},
      {"sequence": "TACACTTTGTAAGACACTTTGGATGGGTTGA [3d585]", "fraction ligated": 0.0938},
      {"sequence": "TATCACTTGTCGTAAACACTTTATGGGTTGA [3d2088]", "fraction ligated": 0.0805},
      {"sequence": "TATCACTTGTCGTAAGACATTTGGATGGTTG [3d2228]", "fraction ligated": 0.0492},
      {"sequence": "TACACTTGTCGTAAGCACTTTGGAGGGTTGA [3d688]", "fraction ligated": 0.0515},
      {"sequence": "ATCACTTTCGTAAGACCTTTGGATGGGTTGA [3d131]", "fraction ligated": 0.752},
      {"sequence": "TATCACGTCGTAAGACACTTTGGATGGGTTGA [2d128]", "fraction ligated": 0.791},
      {"sequence": "TACACTTGTCTAAGACACTTTGGAGGGTTGA [3d642]", "fraction ligated": 0.115},
      {"sequence": "ATCACTTGTCGAAGACACTTTGGATGGGTTGA [2d11]", "fraction ligated": 0.777},
      {"sequence": "TTCCTTGTCGTAAACACTTTGGATGGGTTGA [3d305]", "fraction ligated": 0.786},
      {"sequence": "TATCACTTGTCGAAGACACTTTATGGGTTGA [3d1964]", "fraction ligated": 0.16},
      {"sequence": "TATCCTTGTCGTAAGACACTTTGATGGGTTG [3d1109]", "fraction ligated": 0.749},
      {"sequence": "TATCACTTGTCGTAAGACCTTTGGTGGTTGA [3d2197]", "fraction ligated": 0.0467},
      {"sequence": "TATCACTTGCGTAAGCACTTGGATGGGTTGA [3d1652]", "fraction ligated": 0.792},
      {"sequence": "ATCACTGTCGTAAGCACTTTGGATGGGTTGA [3d113]", "fraction ligated": 0.749},
      {"sequence": "TATCACTTGTGTAAGAACTTTGGATGGGTTA [3d1770]", "fraction ligated": 0.771},
      {"sequence": "TATCACTTGTCGTAAGACACTTTGATGGGTT [3d2269]", "fraction ligated": 0.017},
      {"sequence": "TACCTTTCGTAAGACACTTTGGATGGGTTGA [3d529]", "fraction ligated": 0.435},
      {"sequence": "ATCACTTGTGTAAGACACTTTGATGGGTTGA [3d165]", "fraction ligated": 0.453},
      {"sequence": "ATCACTTGTCGAAGACCTTTGGATGGGTTGA [3d189]", "fraction ligated": 0.75},
      {"sequence": "TATCACTTGTCGAAGAACTTTGGAGGGTTGA [3d1939]", "fraction ligated": 0.111},
      {"sequence": "TATCACTTGTGTAAGACACTTTGGTGGGTTA [3d1801]", "fraction ligated": 0.0254},
      {"sequence": "TATCACTTGTCGTAAACACTTGGATGGGTTGA [2d237]", "fraction ligated": 0.786},
      {"sequence": "TATCACTTTCGTAAGACATTTGGATGGGTTG [3d1560]", "fraction ligated": 0.811},
      {"sequence": "ATCACTTGTGTAAGACACTTTGGTGGGTTGA [3d166]", "fraction ligated": 0.0152},
      {"sequence": "TATCACTTGTCGTAAGACCTTGGAGGGTTGA [3d2186]", "fraction ligated": 0.0676},
      {"sequence": "TATACTTGTTAAGACACTTTGGATGGGTTGA [3d828]", "fraction ligated": 0.793},
      {"sequence": "TATCACTTGTCTAAGACATTTGGATGGTTGA [3d1875]", "fraction ligated": 0.137},
      {"sequence": "ATCACTTTCTAAGACACTTTGGATGGGTTGA [3d125]", "fraction ligated": 0.753},
      {"sequence": "TATCACTTGTCGTAAGACACTTTAGGGTTGA [3d2256]", "fraction ligated": 0.0176},
      {"sequence": "TTCACTTGTCTAAGACATTTGGATGGGTTGA [3d408]", "fraction ligated": 0.753},
      {"sequence": "TATCACTTTCGTAAGACACTTTGGTGGTTGA [3d1575]", "fraction ligated": 0.025},
      {"sequence": "TACACTTGCGTAAGAACTTTGGATGGGTTGA [3d607]", "fraction ligated": 0.015},
      {"sequence": "TAACTTGTCGTAAGACACTTTGGATGGTTGA [3d525]", "fraction ligated": 0.309}
    ]}
  ]
}
